Data on 1 substance can be found in PMC9177983.

This assay addresses reconstituted elongation complex (EC): His-tagged E. coli RNAP core complex on template DNA, non-template DNA and RNA transcript (E. coli).

NusG, sequence (P0AFG0 whole entry): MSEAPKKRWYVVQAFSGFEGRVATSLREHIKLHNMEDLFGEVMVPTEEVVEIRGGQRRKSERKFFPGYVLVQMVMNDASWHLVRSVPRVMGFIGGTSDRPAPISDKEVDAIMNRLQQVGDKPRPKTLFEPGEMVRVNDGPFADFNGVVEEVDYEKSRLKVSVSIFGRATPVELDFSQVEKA

In turn, “NusG (from UniProt P0AFG0 1-181) (natural protein)” came in with a smFRET of surface-immobilised ECs with 500 nM NusG, no nucleotide: percentage of dynamic ECs in the high-mid and high-low FRET regimes (23% for EC alone) of 33%.
